Measurements published in the supplement of paper PMC7877785.
± gives the uncertainty stated by the source.

Test: self-splicing fitness, log relative to wild type (ln ratio); higher = more splicing; Tetrahymena group I intron in knt gene, E. coli kanamycin selection, DiMSum; sequences stand for … in CUCUCU…GGAGGGAAAAGUUAUCAGGCAUGCACCUGGUAGCUAGUCUUUAAACCAAUAGAUUGCAUCGGUUUAAAAGGCAAGACCGUCAAAUUGCGGGAAAGGGGUCAACAGCCGUUCAGUACCAAGUCUCAGGGGAAACUUUGAGAUGGCCUUGCAAAGGGUAUGGUAAUAAGCUGACGGACAUGGUCCUAACCACGCAGCCAAGUCCUAAGUCAACAGAUCUUCUGUUGAUAUGGAUGCAGUUCACAGACUAAAUGUCGGUCGGGGAAGAUGUAUUCUUCUCAUAAGAUAUAGUCGGACCUCUCCUUAAUGGGAGCUAGCGGAUGAAGUGAUGCAACACUGGAGCCGCUGGGAACUAAUUUGUAUGCGAAAGUAUAUUGAUUAGUUUUGGAGUACUCGUGGUCG
Outline: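 A randomised library covering all eight P1ex-region intron nucleotides was built with the intron in the knt kanamycin-resistance gene on pET-22b(+) and held in E. coli BL21(DE3). Cells were grown overnight at 37°C or 30°C on LB agar, with or without 25 μg/mL kanamycin, plus 100 μg/mL carbenicillin, 50 μM IPTG and 0.2% rhamnose, and pooled colonies were amplicon-sequenced on an Illumina HiSeq 2500. DiMSum fitness is the error-weighted combination of wild-type-normalised replicate fold changes, kanamycin versus none.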

Sequence	self-splicing fitness (ln) (30 °C)	self-splicing fitness (ln) (37 °C)
GGCAAGCAAUAUUACGAGGU	-2.6 ± 0.24	-1.27 ± 0.21
GGCAAGCAAUAUUACGAGUC	-2.64 ± 0.12	-1.78 ± 0.13
GGCAAGCAAUAUUACGAUUA	-0.726 ± 0.1	-0.234 ± 0.093
GGCAAGCAAUAUUACGCAAU	-1.03 ± 0.097	0.802 ± 0.11
GGCAAGCAAUAUUACGCAUC	-0.644 ± 0.078	-0.532 ± 0.1
GGCAAGCAAUAUUACGCAUG	-2.17 ± 0.12	-1.36 ± 0.16
GGCAAGCAAUAUUACGCCGG	-2.81 ± 0.3	-3.19 ± 0.22
GGCAAGCAAUAUUACGCUCU	-2.51 ± 0.17	-1.96 ± 0.18
GGCAAGCAAUAUUACGCUGA	-1.13 ± 0.12	-1.27 ± 0.14
GGCAAGCAAUAUUACGGAAG	-2.84 ± 0.1	-1.37 ± 0.1
GGCAAGCAAUAUUACGGACA	-0.577 ± 0.085	-0.00922 ± 0.11
GGCAAGCAAUAUUACGGCCA	-1.24 ± 0.17	-0.0702 ± 0.17
GGCAAGCAAUAUUACGGCGA	-0.134 ± 0.082	0.235 ± 0.11
GGCAAGCAAUAUUACGGGAU	-2.31 ± 0.086	-0.713 ± 0.089
GGCAAGCAAUAUUACGGGUA	-1.57 ± 0.1	-0.544 ± 0.11
GGCAAGCAAUAUUACGGGUC	-3.2 ± 0.17	-0.979 ± 0.12
GGCAAGCAAUAUUACGUUGC	-3.67 ± 0.37	-2.42 ± 0.39
GGCAAGCAAUAUUACGUUUG	-3 ± 0.13	-2.83 ± 0.22
GGCCAGCAAUAUUACGAAAC	-0.973 ± 0.079	0.00581 ± 0.1
GGCCAGCAAUAUUACGACCC		-1.48 ± 0.44
GGCCAGCAAUAUUACGACGU	-0.821 ± 0.083	0.2 ± 0.12
GGCCAGCAAUAUUACGAUAG	-3.68 ± 0.46	-2.95 ± 0.23
GGCCAGCAAUAUUACGAUUC	-0.666 ± 0.067	-0.139 ± 0.099
GGCCAGCAAUAUUACGCACC	-2.17 ± 0.12	-0.636 ± 0.14
GGCCAGCAAUAUUACGCCCU	-1.37 ± 0.16	-0.726 ± 0.15

Sequence	self-splicing fitness (ln) (30 °C)	self-splicing fitness (ln) (37 °C)
GGCCAGCAAUAUUACGCCGA	-1.54 ± 0.16	-1.18 ± 0.14
GGCCAGCAAUAUUACGCCGC	-4.33 ± 0.39	
GGCCAGCAAUAUUACGCGAA	-0.824 ± 0.12	-1.41 ± 0.14
GGCCAGCAAUAUUACGCGAU	-3.5 ± 0.14	-2.17 ± 0.14
GGCCAGCAAUAUUACGCGGA	-1.17 ± 0.12	-0.716 ± 0.1
GGCCAGCAAUAUUACGCUAC	-4.15 ± 0.3	-2.57 ± 0.23
GGCCAGCAAUAUUACGCUCC	-3.17 ± 0.24	-1.38 ± 0.24
GGCCAGCAAUAUUACGGGGG	-3.54 ± 0.18	-1.85 ± 0.17
GGCCAGCAAUAUUACGGGUG	-1.02 ± 0.049	-0.536 ± 0.065
GGCCAGCAAUAUUACGGUUC	-3.72 ± 0.17	-0.463 ± 0.12
GGCCAGCAAUAUUACGUACG	-1.8 ± 0.11	-1.1 ± 0.12
GGCCAGCAAUAUUACGUACU	-0.417 ± 0.08	-0.256 ± 0.093
GGCCAGCAAUAUUACGUAUC	-0.633 ± 0.069	-0.494 ± 0.081
GGCCAGCAAUAUUACGUGCC	-3 ± 0.15	-0.478 ± 0.24
GGCGAGCAAUAUUACGACGA	-3.06 ± 0.32	-1.32 ± 0.26
GGCGAGCAAUAUUACGACUA	-0.848 ± 0.12	-0.00409 ± 0.11
GGCGAGCAAUAUUACGAGUG	-1.67 ± 0.19	-1.47 ± 0.3
GGCGAGCAAUAUUACGAGUU	-2.42 ± 0.14	-1.19 ± 0.16
GGCGAGCAAUAUUACGAUGC	-1.04 ± 0.16	-1.43 ± 0.26
GGCGAGCAAUAUUACGCCUU	-3.21 ± 0.3	-1.81 ± 0.26
GGCGAGCAAUAUUACGCGAG	-2.7 ± 0.24	-2.24 ± 0.32
GGCGAGCAAUAUUACGCGCG		-0.647 ± 0.18
GGCGAGCAAUAUUACGCGGU	-3.13 ± 0.21	-1.69 ± 0.22
GGCGAGCAAUAUUACGCGUC		-2.65 ± 0.39
GGCGAGCAAUAUUACGGCAG		-1.94 ± 0.36

Sequence	self-splicing fitness (ln) (30 °C)	self-splicing fitness (ln) (37 °C)
GGCGAGCAAUAUUACGGUUG	-2.57 ± 0.14	-0.892 ± 0.16
GGCGAGCAAUAUUACGUAAA	-2.28 ± 0.16	-1.06 ± 0.15
GGCGAGCAAUAUUACGUAAU	-1.4 ± 0.13	-0.339 ± 0.14
GGCGAGCAAUAUUACGUACU	-0.65 ± 0.13	-0.094 ± 0.15
GGCGAGCAAUAUUACGUCGU	-3.86 ± 0.22	-2.3 ± 0.32
GGCGAGCAAUAUUACGUCUA	-1.86 ± 0.19	-0.451 ± 0.15
GGCGAGCAAUAUUACGUCUG	-4.26 ± 0.29	-2.53 ± 0.16
GGCGAGCAAUAUUACGUGAU	-2.26 ± 0.15	-1.08 ± 0.14
GGCGAGCAAUAUUACGUUGG	-3.75 ± 0.32	-2.92 ± 0.35
GGCGAGCAAUAUUACGUUUC	-2.07 ± 0.23	-1.99 ± 0.26
GGCUAGCAAUAUUACGAUAG		-2.41 ± 0.39
GGCUAGCAAUAUUACGAUUC	-0.162 ± 0.098	-0.0286 ± 0.13
GGCUAGCAAUAUUACGCAAA	-1.68 ± 0.18	-0.628 ± 0.16
GGCUAGCAAUAUUACGCAAU	-0.887 ± 0.14	-0.69 ± 0.16
GGCUAGCAAUAUUACGCAGC		-2.29 ± 0.39
GGCUAGCAAUAUUACGCAUC	0.346 ± 0.16	0.785 ± 0.17
GGCUAGCAAUAUUACGCCGA	-1.8 ± 0.28	-1.05 ± 0.25
GGCUAGCAAUAUUACGCGGG	-3.62 ± 0.25	-3.06 ± 0.27
GGCUAGCAAUAUUACGCUAC	-3.04 ± 0.48	-2.3 ± 0.34
GGCUAGCAAUAUUACGCUCA	-2.07 ± 0.33	-0.183 ± 0.25
GGCUAGCAAUAUUACGUCUC	-0.325 ± 0.094	-0.0256 ± 0.11
GGCUAGCAAUAUUACGUGAA	-0.24 ± 0.086	-0.383 ± 0.086
GGCUAGCAAUAUUACGUGUU	-1.02 ± 0.058	0.41 ± 0.063
GGGAAGCAAUAUUACGAAGU	-2.43 ± 0.29	-1.83 ± 0.35
GGGAAGCAAUAUUACGAGAG	-3.24 ± 0.27	-2.46 ± 0.24

Sequence	self-splicing fitness (ln) (30 °C)	self-splicing fitness (ln) (37 °C)
GGGAAGCAAUAUUACGAGGC	-3.08 ± 0.29	-1.4 ± 0.2
GGGAAGCAAUAUUACGAGUU	-2.86 ± 0.15	-1.02 ± 0.099
GGGAAGCAAUAUUACGAUGA	-0.977 ± 0.13	-0.771 ± 0.13
GGGAAGCAAUAUUACGCGCA	-0.0561 ± 0.11	-0.304 ± 0.13
GGGAAGCAAUAUUACGCGUA	-0.73 ± 0.14	-0.267 ± 0.14
GGGAAGCAAUAUUACGGACG	-0.846 ± 0.11	-0.443 ± 0.13
GGGAAGCAAUAUUACGGAGC	-1.91 ± 0.21	-1.3 ± 0.21
GGGAAGCAAUAUUACGGCCU	-3.14 ± 0.26	-1.35 ± 0.25
GGGAAGCAAUAUUACGGGCA	-1.9 ± 0.19	0.154 ± 0.21
GGGAAGCAAUAUUACGGUAG	-2.65 ± 0.2	-2.32 ± 0.24
GGGAAGCAAUAUUACGGUGU	-2.2 ± 0.1	-0.483 ± 0.13
GGGAAGCAAUAUUACGUAAC	-2.91 ± 0.26	-1.06 ± 0.18
GGGAAGCAAUAUUACGUAGA	-1.36 ± 0.15	-0.824 ± 0.19
GGGAAGCAAUAUUACGUAUU	-1.87 ± 0.13	-1.58 ± 0.15
GGGAAGCAAUAUUACGUCGG		-0.827 ± 0.18
GGGAAGCAAUAUUACGUGCC		-0.148 ± 0.38
GGGAAGCAAUAUUACGUUAU	-2.98 ± 0.26	-1.33 ± 0.18
GGGCAGCAAUAUUACGACAC	-0.731 ± 0.26	0.302 ± 0.27
GGGCAGCAAUAUUACGAGUC	-1.84 ± 0.21	-1.81 ± 0.28
GGGCAGCAAUAUUACGCAUC	-2.25 ± 0.41	-0.733 ± 0.2
GGGCAGCAAUAUUACGCGAA	-0.567 ± 0.073	0.0161 ± 0.099
GGGCAGCAAUAUUACGCGCG	-0.63 ± 0.13	-0.682 ± 0.14
GGGCAGCAAUAUUACGCGGG	-1.76 ± 0.16	-1.21 ± 0.2
